Consider two molecules from patent publication US20240263208A1, “CYTOCHROME P450 ENZYME” (HYPHA DISCOVERY LTD., priority 2021, published 2024).

Assay type in all cases: biochemical
A short description of data set [1]: Oxidase activity testing against propanalol. As to conditions: substrate Propanalol; Batch 2. As for the experimental part: (§1) Lyophilised material of recombinant P450, ferredoxin and ferredoxin reductase proteins was made as described in Example 4 and reconstituted in high purity water to the original volume. Biocatalysis was performed with shaking incubation at 27° C. in the following conditions: 100 mM potassium phosphate pH 8.0, 5 mM MgCl2 (both present in the reconstituted enzyme preparation) and 0.1 mg/ml substrate compound such as ambroxide (Sigma-Aldrich, UK), carbamazepine (Sigma-Aldrich, UK), diclofenac (Sigma-Aldrich, UK), tivantinib (MedChemtronica, Sweden), clarithromycin (Tokyo Chemical Industry, Japan), sclareol (Sigma-Aldrich, UK), celecoxib (LC Laboratories, USA), buparvaquone (Sigma-Aldrich, UK), BIRB796 (MedChemExpress, USA), vanoxerine (CiVentiChem, USA), valsartan (Tokyo Chemical Industry, Japan), ruxolitinib (LC Laboratories, USA), perindopril (Selleckchem, USA), solifenacin (Key Organics, UK), 7-ethoxycoumarin (Tokyo Chemical Industry, Japan), tofacitinib (LC Laboratories, USA), ebastine (Key Organics, UK), efavirenz (Key Organics, UK), propanalol (Sigma-Aldrich, UK) and tolbutamide (Key Organics, UK).
(§2) Concentrations of P450, ferredoxin and ferredoxin reductase were as extracted (Example 4). Reactions were initiated by addition of 10× stock of cofactor mixture (50 mM G6P, 10 mM NADP+, 10 UN/ml G6PDH) to provide a final volume of e.g., 10 μl to 90 μl for 100 μl total reaction volumes. After 16-20 hours, reactions were extracted with an equal volume of acetonitrile, centrifuged to remove precipitated proteins and conversion assessed by UPLC-MS analysis.
(§3) UPLC Data were Obtained as Follows: • Column: Acquity UPLC BEH Shield RP18 1.7 μm 2.1 mm i.d. 50 mm length • Solvents: H2O, B: Acetonitrile, both with 0.1% Formic acid • Flow rate: 1.0 ml/min • Detector: Waters Acquity UPLC PDA (UV-Vis detection) and Waters Acquity UPLC QDA (MS)
(§4) Representative results for the % conversions of various substrates to products by enzymes with mutations at position T109 or L198 and double mutants at T109 and 1129/L198 are shown in Table 4 below.

Data set [2] is described as follows: Oxidase activity testing against vanoxerine. Particulars: substrate Vanoxerine; Batch 2. As for the experimental part: as §1, §2, §3, §4
Data set [3] can be described thus: Oxidase activity testing against tolbutamide. Particulars: substrate Tolbutamide; Batch 2. How it is done:
as §1, §2, §3, §4

Data set [4] is described as follows: Oxidase activity testing against sclareol. As to conditions: substrate Sclareol; Batch 2; UPLC-MS UV or MS peak areas. How it is done: as §1, §2, §3, §4
Data set [5] in a line: Oxidase activity testing against perindopril. Particulars: substrate Perindopril; Batch 2. How it is done: as §1, §2, §3, §4
The nature of data set [6]: Oxidase activity testing against ebastine. As to conditions: substrate Ebastine; Batch 2. How it is done:
as §1, §2, §3, §4

The nature of data set [7]: Oxidase activity testing against 7-ethoxycoumarin. As to conditions: substrate 7-ethoxycoumarin; Batch 2. As for the experimental part:
as §1, §2, §3, §4

Data set [8] in a line: Oxidase activity testing against celecoxib. As to conditions: substrate Celecoxib; Batch 2. As for the experimental part: as §1, §2, §3, §4
Data set [9] can be described thus: Oxidase activity testing against tofacitinib. As to conditions: substrate Tofacitinib; Batch 2. As for the experimental part: as §1, §2, §3, §4
The nature of data set [10]: Oxidase activity testing against solifenacin. As to conditions: substrate Solifenacin; Batch 2. As for the experimental part: as §1, §2, §3, §4
Data set [11] in a line: Oxidase activity testing against clarithromycin. Particulars: for new product at 3.12 minutes (3″-O-demethylclarithromycin) from clarithromycin: chromatographic analysis, FIGS. 5 and 6; for Average % conversion: substrate Clarithromycin, Batch 2. How it is done:
as §1, §2, §3, §4

Data set [12] in a line: Oxidase activity testing against efavirenz. Particulars: substrate Efavirenz; Batch 2. How it is done: as §1, §2, §3, §4
Data set [13] in a line: Oxidase activity testing against valsartan. Particulars: substrate Valsartan; Batch 2. How it is done:
as §1, §2, §3, §4

The nature of data set [14]: Oxidase activity testing against BIRB796. Particulars: substrate BIRB796; Batch 2. As for the experimental part: as §1, §2, §3, §4
Data set [15] is described as follows: Oxidase activity testing against buparvaquone. Particulars: substrate Buparvaquone; Batch 2. How it is done:
as §1, §2, §3, §4

The nature of data set [16]: Oxidase activity testing against ruxolitinib. Particulars: substrate Ruxolitinib; Batch 2. How it is done:
as §1, §2, §3, §4

B1: M15: P450SeuC10 with L198T mutation, SEQ ID NO: 34 (protein)
chain: MKIGTTHLTRLRGLSMTELTDITGPAAQAETVAFPQDRTCPYHPPTGYDPLRDGRPLSRVTLYDGREVWLVTAQATARALLADPRLSTDRRRDGFPVPTPRFAAGRDRTLALLGLDDPEHHRQRRLLIPSFTLKRATAQRPWIQRIVDELLDAMIARGPVADLVSAFALPVPSMVICELLGVPYADHEFFEEQSRRLTRGPTGADTTDARDRLEAYLGDLIDAKAKEAEPGDGILDDLVHNRLRAGELDRSVLVSLAVILLVAGHETTANMISLGTYTLLQHPERLAELRADPSLLPAVVEELLRMLSIAEGLQRLALEDIEIDGITIRAGEGVLFSTSVINRDTAVYEDPDDLDFHRADRHHVAFGFGIHQCLGQNLARAELEIALGSLFTRLPGLRLAAPAEEIPFKPGDTVQGMLELPVTW
modifications: SeuC10M15
Turning to B1, the Average % conversion in data set [1] was found to be 0%; in data set [2], 41%; in [3], 28.3%; in data set [4], 61%; in data set [5] it was 35.4%; in data set [6], 0.5%. Moreover, the Average % conversion in data set [7] turned out to be 14.7%; in data set [8], 7.2%; in [9], 32.3%; in data set [10] it was 6%; in data set [11] it was 0%; in data set [12] it was 4.3%. The Average % conversion in data set [13] was 20.9%; in data set [14] it was 34.4%; in [15], 0%; in data set [16] it was 100%. Besides, the “new product at 3.12 minutes (3″-O-demethylclarithromycin) from clarithromycin” value in data set [11] is reported as “not observed”.

B2: M31: P450SeuC10 with T109F and I259A double mutations, SEQ ID NO: 128 (protein)
chain: MKIGTTHLTRLRGLSMTELTDITGPAAQAETVAFPQDRTCPYHPPTGYDPLRDGRPLSRVTLYDGREVWLVTAQATARALLADPRLSTDRRRDGFPVPTPRFAAGRDRFLALLGLDDPEHHRQRRLLIPSFTLKRATAQRPWIQRIVDELLDAMIARGPVADLVSAFALPVPSMVICELLGVPYADHEFFEEQSRRLLRGPTGADTTDARDRLEAYLGDLIDAKAKEAEPGDGILDDLVHNRLRAGELDRSVLVSLAVALLVAGHETTANMISLGTYTLLQHPERLAELRADPSLLPAVVEELLRMLSIAEGLQRLALEDIEIDGITIRAGEGVLFSTSVINRDTAVYEDPDDLDFHRADRHHVAFGFGIHQCLGQNLARAELEIALGSLFTRLPGLRLAAPAEEIPFKPGDTVQGMLELPVTW
modifications: SeuC10M31
As for B2, the Average % conversion in data set [1] worked out at 0%; in data set [2], 11.4%; in data set [3] it was 2.9%; in [4], 1.3%; in data set [5] it was 14.6%; in data set [6] it was 0%. In addition, the Average % conversion in data set [7] was determined as 2.9%; in data set [8], 0.4%; in [9] it was 8.2%; in [10], 2.2%; in data set [11] it was 0.7%; in data set [12], 4.1%. In addition, the Average % conversion came to 0.6% in [13], 0% in data set [14], 0% in data set [15] and 46.9% in data set [16]. Moreover, in data set [11], the “new product at 3.12 minutes (3″-O-demethylclarithromycin) from clarithromycin” value was “not observed”.
